Measurements from US9958461B2, “Detection of protein to protein interactions” (THE GOVERNING COUNCIL OF THE UNIVERSITY OF TORONTO, priority 2013, dated 2018).

Columns and labels:
EGFR-L858R = biological target: T1, EGFR-L858R (Homo sapiens, UniProt P00533, L858R); assay: MaMTH EGFR-interactor screen, lentiviral preys against EGFR-L858R bait (interaction score); format: cell-based; details: MaMTH interaction score of prey with EGFR-L858R bait
T1 construct: with the advantage of testing full-length integral membrane proteins; (GGGGS)2 linker-Cub (human ubiquitin aa 35-76)-GAL4(1-147)-mNFkB(364-550) (C); expressed in transfected cells
Procedure, shortened: (§1)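 5×GAL4UAS-luciferase HEK293T reporter cells were lentivirally infected with preys (MOI ~0.3-0.4) and puromycin-selected ≥48 h. They were then transfected in triplicate with the EGFR bait, and luciferase was read 24 h later. Score is fold-change over averaged negative-control preys; >1 denotes interaction.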

EGFR-Wt [1] = assay: MaMTH EGFR-interactor screen, lentiviral preys against EGFR-wildtype bait (interaction score); format: cell-based, human; details: ratio of EGFR-Wt mean to EGFR-L858R mean interaction score
Procedure, shortened: as §1

EGFR-Wt [2] = biological target: T2, EGFR-Wt (Homo sapiens, UniProt P00533); assay: as above; format: cell-based; details: MaMTH interaction score of prey with EGFR-Wt bait, mean
T2 construct: with the advantage of testing full-length integral membrane proteins; (GGGGS)2 linker-Cub (human ubiquitin aa 35-76)-GAL4(1-147)-mNFkB(364-550) (C); expressed in transfected cells
Procedure, shortened: as §1

Row | Molecule | EGFR-L858R mean (EGFR-L858R) | Wt/L858R (EGFR-Wt [1]) | EGFR-Wt mean (EGFR-Wt [2])
1 | SH3GL2 (protein, UniProt Q99962 1-352, looked up) Endophilin-A1: MSVAGLKKQFHKATQKVSEKVGGAEGTKLDDDFKEMERKVDVTSRAVMEIMTKTIEYLQPNPASRAKLSMINTMSKIRGQEKGPGYPQAEALLAEAMLKFGRELGDDCNFGPALGEVGEAMRELSEVKDSLDIEVKQNFIDPLQNLHDKDLREIQHHLKKLEGRRLDFDYKKKRQGKIPDEELRQALEKFDESKEIAESSMFNLLEMDIEQVSQLSALVQAQLEYHKQAVQILQQVTVRLEERIRQASSQPRREYQPKPRMSLEFPTGDSTQPNGGLSHTGTPKPSGVQMDQPCCRALYDFEPENEGELGFKEGDIITLTNQIDENWYEGMLHGHSGFFPINYVEILVALPH | 7.85 | 0.58 | 4.58
2 | WASF3 (protein, UniProt Q9UPY6 1-502, looked up) Actin-binding protein WASF3: MPLVKRNIEPRHLCRGALPEGITSELECVTNSTLAAIIRQLSSLSKHAEDIFGELFNEANNFYIRANSLQDRIDRLAVKVTQLDSTVEEVSLQDINMKKAFKSSTVQDQQVVSKNSIPNPVADIYNQSDKPPPLNILTPYRDDKKDGLKFYTDPSYFFDLWKEKMLQDTEDKRKEKRRQKEQKRIDGTTREVKKVRKARNRRQEWNMMAYDKELRPDNRLSQSVYHGASSEGSLSPDTRSHASDVTDYSYPATPNHSLHPQPVTPSYAAGDVPPHGPASQAAEHEYRPPSASARHMALNRPQQPPPPPPPQAPEGSQASAPMAPADYGMLPAQIIEYYNPSGPPPPPPPPVIPSAQTAFVSPLQMPMQPPFPASASSTHAAPPHPPSTGLLVTAPPPPGPPPPPPGPPGPGSSLSSSPMHGPPVAEAKRQEPAQPPISDARSDLLAAIRMGIQLKKVQEQREQEAKREPVGNDVATILSRRIAVEYSDSDDDSEFDENDWSD | 2.15 | 0.61 | 1.30
3 | Shc1 (protein, UniProt P98083 1-579, looked up) SHC-transforming protein 1: MDLLPPKPKYNPLRNESLSSLEEGASGSTPPEELPSPSASSLGPILPPLPGDDSPTTLCSFFPRMSNLKLANPAGGRLGPKGEPGKAAEDGEGSAGAALRDSGLLPLLQDMNKLSGGGGRRTRVEGGQLGGEEWTRHGSFVNKPTRGWLHPNDKVMGPGVSYLVRYMGCVEVLQSMRALDFNTRTQVTREAISLVCEAVPGAKGATRRRKPCSRPLSSILGRSNLKFAGMPITLTVSTSSLNLMAADCKQIIANHHMQSISFASGGDPDTAEYVAYVAKDPVNQRACHILECPEGLAQDVISTIGQAFELRFKQYLRNPPKLVTPHDRMAGFDGSAWDEEEEEPPDHQYYNDFPGKEPPLGGVVDMRLREGAARPTLPSAQMSSHLGATLPIGQHAAGDHEVRKQMLPPPPCPGRELFDDPSYVNIQNLDKARQAGGGAGPPNPSLNGSAPRDLFDMKPFEDALRVPPPPQSMSMAEQLQGEPWFHGKLSRREAEALLQLNGDFLVRESTTTPGQYVLTGLQSGQPKHLLLVDPEGVVRTKDHRFESVSHLISYHMDNHLPIISAGSELCLQQPVDRKV | 21.65 | 0.64 | 13.89
4 | MAPK8 (protein, UniProt P45983 1-427, looked up) Mitogen-activated protein …: MSRSKRDNNFYSVEIGDSTFTVLKRYQNLKPIGSGAQGIVCAAYDAILERNVAIKKLSRPFQNQTHAKRAYRELVLMKCVNHKNIIGLLNVFTPQKSLEEFQDVYIVMELMDANLCQVIQMELDHERMSYLLYQMLCGIKHLHSAGIIHRDLKPSNIVVKSDCTLKILDFGLARTAGTSFMMTPYVVTRYYRAPEVILGMGYKENVDLWSVGCIMGEMVCHKILFPGRDYIDQWNKVIEQLGTPCPEFMKKLQPTVRTYVENRPKYAGYSFEKLFPDVLFPADSEHNKLKASQARDLLSKMLVIDASKRISVDEALQHPYINVWYDPSEAEAPPPKIPDKQLDEREHTIEEWKELIYKEVMDLEERTKNGVIRGQPSPLGAAVINGSQHPSSSSSVNDVSSMSTDPTLASDTDSSLEAAAGPLGCCR | 5.13 | 0.64 | 3.30
5 | BAIAP2 (protein, UniProt Q9UQB8 1-552, looked up) BAR/IMD domain-containing …: MSLSRSEEMHRLTENVYKTIMEQFNPSLRNFIAMGKNYEKALAGVTYAAKGYFDALVKMGELASESQGSKELGDVLFQMAEVHRQIQNQLEEMLKSFHNELLTQLEQKVELDSRYLSAALKKYQTEQRSKGDALDKCQAELKKLRKKSQGSKNPQKYSDKELQYIDAISNKQGELENYVSDGYKTALTEERRRFCFLVEKQCAVAKNSAAYHSKGKELLAQKLPLWQQACADPSKIPERAVQLMQQVASNGATLPSALSASKSNLVISDPIPGAKPLPVPPELAPFVGRMSAQESTPIMNGVTGPDGEDYSPWADRKAAQPKSLSPPQSQSKLSDSYSNTLPVRKSVTPKNSYATTENKTLPRSSSMAAGLERNGRMRVKAIFSHAAGDNSTLLSFKEGDLITLLVPEARDGWHYGESEKTKMRGWFPFSYTRVLDSDGSDRLHMSLQQGKSSSTGNLLDKDDLAIPPPDYGAASRAFPAQTASGFKQRPYSVAVPAFSQGLDDYGARSMSRNPFAHVQLKPTVTNDRCDLSAQGPEGREHGDGSARTLAGR | 7.37 | 0.66 | 4.83
6 | SH2D3A (protein, UniProt Q9BRG2 1-576, looked up) SH2 domain-containing protein …: MQVPQDGEDLAGQPWYHGLLSRQKAEALLQQNGDFLVRASGSRGGNPVISCRWRGSALHFEVFRVALRPRPGRPTALFQLEDEQFPSIPALVHSYMTGRRPLSQATGAVVSRPVTWQGPLRRSFSEDTLMDGPARIEPLRARKWSNSQPADLAHMGRSREDPAGMEASTMPISALPRTSSDPVLLKAPAPLGTVADSLRASDGQLQAKAPTKPPRTPSFELPDASERPPTYCELVPRVPSVQGTSPSQSCPEPEAPWWEAEEDEEEENRCFTRPQAEISFCPHDAPSCLLGPQNRPLEPQVLHTLRGLFLEHHPGSTALHLLLVDCQATGLLGVTRDQRGNMGVSSGLELLTLPHGHHLRLELLERHQTLALAGALAVLGCSGPLEERAAALRGLVELALALRPGAAGDLPGLAAVMGALLMPQVSRLEHTWRQLRRSHTEAALAFEQELKPLMRALDEGAGPCDPGEVALPHVAPMVRLLEGEEVAGPLDESCERLLRTLHGARHMVRDAPKFRKVAAQRLRGFRPNPELREALTTGFVRRLLWGSRGAGAPRAERFEKFQRVLGVLSQRLEPDR | 7.23 | 0.66 | 4.75
7 | Pdgfra (protein, UniProt P26618 25-1089, looked up) Platelet-derived growth …: LLLPSILPNENEKIVQLNSSFSLRCVGESEVSWQHPMSEEDDPNVEIRSEENNSGLFVTVLEVVNASAAHTGWYTCYYNHTQTDESEIEGRHIYIYVPDPDMAFVPLGMTDSLVIVEEDDSAIIPCRTTDPETQVTLHNNGRLVPASYDSRQGFNGTFSVGPYICEATVKGRTFKTSEFNVYALKATSELNLEMDARQTVYKAGETIVVTCAVFNNEVVDLQWTYPGEVRNKGITMLEEIKLPSIKLVYTLTVPKATVKDSGEYECAARQATKEVKEMKRVTISVHEKGFVEIEPTFGQLEAVNLHEVREFVVEVQAYPTPRISWLKDNLTLIENLTEITTDVQKSQETRYQSKLKLIRAKEEDSGHYTIIVQNEDDVKSYTFELSTLVPASILDLVDDHHGSGGGQTVRCTAEGTPLPEIDWMICKHIKKCNNDTSWTVLASNVSNIITELPRRGRSTVEGRVSFAKVEETIAVRCLAKNNLSVVARELKLVAPTLRSELTVAAAVLVLLVIVIVSLIVLVVIWKQKPRYEIRWRVIESISPDGHEYIYVDPMQLPYDSRWEFPRDGLVLGRILGSGAFGKVVEGTAYGLSRSQPVMKVAVKMLKPTARSSEKQALMSELKIMTHLGPHLNIVNLLGACTKSGPIYIITEYCFYGDLVNYLHKNRDSFMSQHPEKPKKDLDIFGLNPADESTRSYVILSFENNGDYMDMKQADTTQYVPMLERKEVSKYSDIQRSLYDRPASYKKKSMLDSEVKNLLSDDDSEGLTLLDLLSFTYQVARGMEFLASKNCVHRDLAARNVLLAQGKIVKICDFGLARDIMHDSNYVSKGSTFLPVKWMAPESIFDNLYTTLSDVWSYGILLWEIFSLGGTPYPGMMVDSTFYNKIKSGYRMAKPDHATSEVYEIMVQCWNSEPEKRPSFYHLSEIVENLLPGQYKKSYEKIHLDFLKSDHPAVARMRVDSDNAYIGVTYKNEEDKLKDWEGGLDEQRLSADSGYIIPLPDIDPVPEEEDLGKRNRHSSQTSEESAIETGSSSSTFIKREDETIEDIDMMDDIGIDSSDLVEDSFL | 13.73 | 0.67 | 9.18
